Assay results published in patent publication US20230381329A1, “Zwitterion Polymer-Drug Conjugates” (University of Utah Research Foundation, priority 2022, published 2023).
Like-named read-outs stand apart in the source and are kept apart here.

Legend:
[1] = test system: Chinese hamster ovary cells; details: cited from earlier work
[2] = biological target: T1, recombinant human (rHu) insulin (Homo sapiens, UniProt P01308); details: CB[7] alone, already shown; cited from earlier work
T1 construct: Insulin is a 51-residue protein
T1 sequence (P01308 25-54 limits assumed): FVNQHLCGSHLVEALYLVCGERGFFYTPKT
T1 sequence (P01308 90-110 limits assumed): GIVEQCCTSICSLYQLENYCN

[3] = biological target: N-terminal phenylalanine residue on insulin (Homo sapiens, UniProt P01308); details: CB[7] macrocycle binding N-terminal phenylalanine of insulin; cited from earlier work
N-terminal phenylalanine residue on insulin, sequence (P01308 25-54 limits assumed): as the sequence (P01308 25-54 limits assumed) above

[4] = mice, cited from earlier work
Human calcitonin (hCT) = biological target: T2, Human calcitonin (hCT) (Homo sapiens, UniProt P01258); assay: Calcitonin aggregation assay (transmittance at 540 nm, 37° C.); type: physicochemical; details: for time stabilized against aggregation: with 5 molar equivs CB[7]-PMet^CM80, with agitation, 37° C.; for time stabilized against aggregation / aggregation behavior alone: FIG. 5C; for aggregation behavior alone: without CB[7]-PMet^CM80, PBS pH 7.4, 37° C.; for stabilization against aggregation: with CB[7]-PMet^CM80, FIG. 5C
T2 construct: made in house; host or cells: chemical peptide synthesis (on resin)
T2 sequence (P01258 85-116): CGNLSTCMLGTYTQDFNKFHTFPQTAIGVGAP
Protocol: Aggregation assay methods. Insulin aggregation assay. Insulin aggregation was assessed (Sluzky, V.; et al. Proc. Natl. Acad. Sci. U.S.A 1991, 88 (21), 9377-9381; and Webber, M. J.; et al. Proc. Natl. Acad. Sci. U.S.A 2016, 113 (50), 14189-14194). Insulin or calcitonin samples at pH 7.4 PBS and a final concentration of 1 mg/mL were prepared with and without the addition of 1.5 molar equivs of CB [7]-PMet. Samples were plated in a clear 96-well plate (Thermo Scientific Nunc) at a volume of 150 μL per well (n=5 wells/group) and sealed with an optically clear and thermally stable seal. The plate was immediately placed into a Tecan Infinite M200 plate reader and shaken continuously at 37° C. Absorbance readings at 540 nm were collected every 6 min the duration of the experiment as reported, and absorbance values were subsequently converted to transmittance.
Calcitonin aggregation assay. hCT and analogs were dissolved in PBS buffer, pH 7.4 and centrifuged at 3000 rpm for 3 min. The supernatant concentration was determined by nanodrop (6=1615 M^−1cm^−1 at 280 nm). hCT and analogs were prepared at a final concentration of 0.5 mg/mL with and without 5 eq of PMet^CM80-CB[7]. Samples were plated at 150 μL per well in a clear 96-well plate (Fisher Scientific Nunc) and sealed with optically clear and thermally stable sealing tape (VWR). The plate was immediately placed into the plate reader at 37° C. Absorbance readings at 540 nm were collected every 6 min with 60 s shaking between reads for […]. Absorbance values were subsequently converted to transmittance.
Aggregation assays. Peptide therapeutics were prepared (Meudom, R.; et al. Curr. Res. Chem. Biol. 2022, 2, 100013) and aggregation was assessed (Sluzky, V.; et al. Proc. Natl. Acad. Sci. U.S.A 1991, 88 (21), 9377-938; and Webber, M. J.; et al. Proc. Natl. Acad. Sci. U.S.A 2016, 113 (50), 14189-14194). Insulin or calcitonin solutions were prepared in PBS at pH 7.4 at a final concentration of 1 mg/mL, and with and without the addition of 1.5 molar equivs of CB [7]-PMet for rHu insulin and 5 molar equivs for hCT. Samples were plated in a clear 96-well plate (Thermo Scientific Nunc) at a volume of 150 μL per well (n=wells/group) and sealed with an optically clear and thermally stable seal. The plate was shaken continuously at 37° C. and absorbance readings at 540 nm were collected every 6 min the duration of the experiment as reported. Absorbance values were subsequently converted to transmittance.
Next, the stabilizing effects of CB[7]-PMet^CM80 on other aggregation-prone proteins was assessed. Human calcitonin (hCT, FIG. 5A) was selected as a model protein therapeutic. Since hCT lacks a terminal Phe for host-guest complexation, the N-terminal amine was selectively modified on-resin with a benzylic amine group using reductive amination chemistry (FIG. 5B). To optimize binding, two spacer lengths between the terminal amine and the benzyl ring were examined comprising either one or two methylene units (hCT A1 and A2, respectively). Aggregation behavior over 40 h was examined using the methods described herein, and with or without CB[7]-PMet^CM80. […] However, addition of CB[7]-PMet^CM80 stabilized hCT A2 for at least 40 h with agitation, while hCT A1 was stabilized for ca. 34 h.

[5] = biological target: T1, recombinant human (rHu) insulin; assay: Insulin aggregation assay (transmittance at 540 nm, continuous agitation at 37° C.); type: physicochemical
Protocol: Insulin or calcitonin solutions were prepared in PBS at pH 7.4 at a final concentration of 1 mg/mL, and with and without the addition of 1.5 molar equivs of CB [7]-PMet for rHu insulin and 5 molar equivs for hCT. […] The plate was shaken continuously at 37° C. and absorbance readings at 540 nm were collected every 6 min the duration of the experiment as reported. Absorbance values were subsequently converted to transmittance. […]

With cucurbit[7]uril [CB[7]] as the substance, how does the IC50 [1] read?
The IC50 was 530 ± 20 µM.

And the “effect on rHu insulin stability” value [2]?
The value was “no effect”.

And the Ka [3]?
Its Ka is 1.5e+06 M⁻¹.

And the tolerated dose ([4]; intravenous)?
The tolerated dose was “up to 250 mg kg^−1”.

What about the tolerated dose ([4]; oral) of the same substance?
The tolerated dose was no more than 600 mg/kg.

Which “time stabilized against aggregation” value (Human calcitonin (hCT)) does the source give for “hCT A1: benzyl-functionalized human calcitonin with one methylene spacer between the terminal amine and the benzyl ring” here?
The value was “ca. 34 h”.

And the aggregation behavior alone (Human calcitonin (hCT))?
Its aggregation behavior alone is “rapid aggregation”.

Which stabilization against aggregation (Human calcitonin (hCT)) does the source give for “hCT: Human calcitonin, SEQ ID NO: 3, H2N-CGNLSTCMLGTYTQDFNKFHTFPQTAIGVGAP” here?
Its stabilization against aggregation is “not stabilized”.

And the aggregation behavior alone (Human calcitonin (hCT))?
Its aggregation behavior alone is “rapid aggregation”.

For “rHu insulin: recombinant human insulin, SEQ ID NO: 1 and SEQ ID NO: 2 chains”, which “aggregation of rHu insulin alone” value ([5]; no additive, continuous agitation at 37° C., within the first few hours) is on record?
Its value is “rapid aggregation”.

Which “time stabilized against aggregation” value (Human calcitonin (hCT)) does the source give for “hCT A2: benzyl-functionalized human calcitonin with two methylene spacers between the terminal amine and the benzyl ring” here?
Its value is “at least 40 h”.

And the stabilization against aggregation (Human calcitonin (hCT))?
Its stabilization against aggregation is “resistance to aggregation”.

What about the aggregation behavior alone (Human calcitonin (hCT)) of the same substance?
Its aggregation behavior alone is “rapid aggregation”.

Which “inhibition of rHu insulin aggregation under continuous agitation” value ([5]; 1 mg/mL insulin, PBS pH 7.4, 1.5 molar equivs additive, 37° C., 100 h, FIG. 3B) does the source give for “Poly-S-Carboxymethyl-L-Methionine Sulfonium Chloride Alkyne [PMetCM-Alk]” here?
The value was “no inhibition”.
